The values below come from US20150216948A1, “CYTOCHROME P450 SUICIDE GENE SYSTEM” (priority 2012, published 2015).

The subject of this assay is HepG2 cells. In words: 4-IPO toxicity assay: survival of transduced HepG2 cells by flow cytometry (propidium iodine). Format: cell-based, human. Particulars: for 4-IPO processing activity / cell killing (in words): transduced cells challenged with 4-IPO. The source says:
Initially, the serine at position 427 in the human CYP4B1 was mutated back to proline (h-P427), which is present at this position in all CYP4B1 proteins. Additionally a proline to serine exchange was created in the native rabbit CYP4B1 enzyme at the corresponding position 422 (r-P422). To immediately exclude the possibility that the different activities between human and the rabbit protein isoforms are simply due to differences in mRNA stability, the human CYP4B1 cDNA (SEQ ID NO.: 2) was optimized for human-codon usage (SEQ ID NO.: 3) by de novo synthesis with silent mutagenesis of the cDNA, thus removing internal TATA-boxes, instability motives, RNA secondary structures and (cryptic) splice donor/acceptor sites and ensuring an average GC content of around 60%. All cDNAs were cloned into the same lentiviral (LV) HIV1-based expression vector and LV supernatants produced by plasmid transfection in HEK293T cells. Subsequently, the two rabbit and the four human cDNAs were stably expressed in the human liver cell line HepG2. Stably expressing transduced cells were challenged after five days with increasing concentrations of 4-IPO for 24, 48 and 72 hours and then the survival of cells analyzed by flow cytometry using propidium iodine for live/dead cell discrimination.
Next, it was analyzed whether the different activities of the human and the rabbit proteins in processing 4-IPO could be explained by differences in protein half-life. However, as no antibody was available that can detect both CYP4B1 proteins, EGFP fusion constructs were generated. With these constructs, EGFP antibodies can be utilized to visualize and compare the expression levels and the half-lives of the fusion proteins in cells by western blots. EGFP expression can also be used for flow cytometry assessment of the expression levels due to the fluorescent properties of the fusion proteins. 5′- and 3′-fusions of EGFP with the native rabbit P422 and the human P427 CYP4B1 proteins were cloned in LV vectors with an IRES-NEO (NEO=neomycin phosphotransferase cDNA, npt II) and stably expressed in HepG2 cells (FIG. 3 B). For comparison, the corresponding IRES-EGFP constructs were also included, as these vectors had already been used in previous experiments and activity measurements thus already existed. Transduced cells were incubated for 24, 48 and 72 hours with increasing concentration of 4-IPO. Cultures were then harvested, cells stained with propidium iodine and subsequently analyzed for survival of transduced EGFP+ cells by flow cytometry (FIG. 3 A).
Background: In flow cytometry, cells or beads pass a laser one at a time.

B1: CYP4B1 P427 mut18: modified human CYP4B1 P427 with sections 1+2+3 of the rabbit protein; differs in 19 amino acids (protein)
chain: MVPSFLSLSFSSLGLWASGLILVLGFLKLIHLLLRRQTLAKAMDKFPGPPTHWLFGHALEIQETGSLDKVVSWAHQFPYAHPLWFGQFIGFLNIYEPDYAKAVYSRGDPKAPDVYDFFLQWIGKGLLVLDGPKWFQHRKLLTPGFHYDVLKPYVAIFADSTRIMLEKWEKKACEGKSFDIFSDVGHMALDTLMKCTFGKGDSGLNHRDSSYYVAVSELTLLMQQRIDSFQYHNDFIYWLTPHGRRFLRACQVAHDHTDQVIRERKAALQDEKVRKKIQNRRHLDFLDILLGARDEDDIKLSDADLRAEVDTFMFEGHDTTTSGISWFLYCMALYPEHQHRCREEVREILGDQDFFQWDDLGKMTYLTMCIKESFRLYPPVPQVYRQLSKPVTFVDGRSLPAGSLISMHIYALHRNSAVWPDPEVFDPLRFSTENASKRHPFAFMPFSAGPRNCIGQQFAMSEMKVVTAMCLLRFEFSLDPSRLPIKMPQLVLRSKNGFHLHLKPLGPGSGK
With B1, the “4-IPO processing activity / cell killing (in words)” value (listed as human P427 CYP4B1 protein with sections 1+2+3) is “almost as high as the activity of native rabbit protein” and the “4-IPO processing activity / cell killing (in words)” value (listed as modified human CYP4B1 P427 protein with sections 1+2+3 of the rabbit protein) is on record as “increased activity for toxifying 4-IPO”. Further, the cell survival rates result (within 72 hours upon applying 4-IPO, FIG. 6 D) is “about 10%”.

B2: variant of hCYP4B1 having an insertion of a serine at position 207: human CYP4B1 variant with serine insertion at amino acid position 207 (protein, listed as Homo sapiens)
chain: MVPSFLSLSFSSLGLWASGLILVLGFLKLIHLLLRRQTLAKAMDKFPGPPTHWLFGHALEIQETGSLDKVVSWAHQFPYAHPLWFGQFIGFLNIYEPDYAKAVYSRGDPKAPDVYDFFLQWIGRGLLVLEGPKWLQHRKLLTPGFHYDVLKPYVAVFTESTRIMLDKWEEKAREGKSFDIFCDVGHMALNTLMKCTFGRGDTGLGHSRDSSYYLAVSDLTLLMQQRLVSFQYHNDFIYWLTPHGRRFLRACQVAHDHTDQVIRERKAALQDEKVRKKIQNRRHLDFLDILLGARDEDDIKLSDADLRAEVDTFMFEGHDTTTSGISWFLYCMALYPEHQHRCREEVREILGDQDFFQWDDLGKMTYLTMCIKESFRLYPPVPQVYRQLSKPVTFVDGRSLPAGSLISMHIYALHRNSAVWPDPEVFDSLRFSTENASKRHPFAFMPFSAGPRNCIGQQFAMSEMKVVTAMCLLRFEFSLDPSRLPIKMPQLVLRSKNGFHLHLKPLGPGSGK
modifications: serine insertion at 207
In the case of B2, the “4-IPO processing activity / cell killing (in words)” value is “did not reveal any functional differences”.

B3: modified human CYP4B1 P427 protein with the additional section 1 of the rabbit protein: differs in only four amino acid from the native human CYP4B1 protein (protein)
chain: MVPSFLSLSFSSLGLWASGLILVLGFLKLIHLLLRRQTLAKAMDKFPGPPTHWLFGHALEIQETGSLDKVVSWAHQFPYAHPLWFGQFIGFLNIYEPDYAKAVYSRGDPKAPDVYDFFLQWIGKGLLVLDGPKWFQHRKLLTPGFHYDVLKPYVAVFTESTRIMLDKWEEKAREGKSFDIFCDVGHMALNTLMKCTFGRGDTGLGHRDSSYYLAVSDLTLLMQQRLVSFQYHNDFIYWLTPHGRRFLRACQVAHDHTDQVIRERKAALQDEKVRKKIQNRRHLDFLDILLGARDEDDIKLSDADLRAEVDTFMFEGHDTTTSGISWFLYCMALYPEHQHRCREEVREILGDQDFFQWDDLGKMTYLTMCIKESFRLYPPVPQVYRQLSKPVTFVDGRSLPAGSLISMHIYALHRNSAVWPDPEVFDPLRFSTENASKRHPFAFMPFSAGPRNCIGQQFAMSEMKVVTAMCLLRFEFSLDPSRLPIKMPQLVLRSKNGFHLHLKPLGPGSGK
In the case of B3, the “4-IPO processing activity / cell killing (in words)” value is given as “increased activity for toxifying 4-IPO”.
